Reference: PMC7101364, “The biofilm-associated surface protein Esp of Enterococcus faecalis forms amyloid-like fibers” (NPJ Biofilms and Microbiomes, 2020)

Biological target: the molecule itself
Test: visible aggregation in tubes; 2 uM rEsp_N in phosphate-citrate buffer, pH 3.6 to 8 tested; aggregates at pH 4.0-4.2 seen as a ring on the glass wall after 24 h at 37 °C, 200 rpm

B1: recombinant Esp_N domain (N-terminal domain of the enterococcal surface protein Esp, amino acids 50-743) (domain or fragment)
chain: QMGEGRLANYSASGNTFQENPGYTKNYNFSDLQFNPKAITGDVLQGNTIDFEVYGKHNIAASTANWEIRLQLDERLAQYVEKIQVDPKKGVGNSRRTFVRINDSLGRPTNIWKVNYIRANDGLFAGAETTDTQTAPNGVITFEKNLDEIFKEIGADNLKSDRLMYRIYLVSHQDDDKIVPGIESTGYFLTDQDDFYNKLDVSENNSDQFKHGSVNTKYEEANIQTKDGSGSTGANGAIILDHKLTKEKNFSYSTSAKGTPWYANYKIDERLVPYVSGIQMHMVQADKVAYNVAFESGKKVADLAIERREGHENYGMGSITDNDLTKLIDFANASPRPIVVRYVLQLTKPLDEILEEMKAADKIEENAPFGEDFIFDSWLSDTNKKLIQNTYGTGYYYLQDIDGDGNPDDKEESGDTNPYIGKPELEEVYDVDTTVKGKVFIHELAGTGHKAQLVDKEGTVLAEKTIAPNEKDGAPISDTVEFEFTGVDSSKLIAKDELKIQIVSPGFDKPEEGSTVIKESPKAVDKQTVVVGFKPDAKESIRNNKNLPEDAEYSWKTEPDTSNVTDSTKGIVTVKIGNRTFDVDVEFAVKASQAMENDATYVPITTTPETTIQSGKPTFDKPDVPLANDAFSVLDVYNKDFGNASVDANTGIVTFTPAKGVGESEPITGTIPIKIVYQDGSVGTTDLAVTVSKN
notes: Enterococcal surface protein Esp of Enterococcus faecalis, amplified from strain 11279; N-terminal domain, amino acids 50-743 of the 1873-residue protein; No cleavage of the tag is mentioned; also called N-terminus of Esp; not shown: His tag (from the vector pET46-Ek/LIC)
binding result: binds
